# Test results as given in article PMC10466327.
# Target: glutathione S-transferase (GST)
# Assay: cross-linking; GST crosslinked in a crosslinker titration with UCCL or DSSO, two molar ratios of each reagent; crosslinked dimer seen (Figure 2c)
substance,measurement,value
glutathione S-transferase (GST) (enzyme),stoichiometry N,2
